Assay [1] addresses ^HisBamA_(N427C) (E. coli) (UniProt P0A940). The assay can be described thus: cross-linking.
Assay [2] addresses ^HisBamA_(T809C) (E. coli) (UniProt P0A940). Description: cross-linking.

For the substance “^MBP−76EspP_(T984C) (from UniProt Q7BSW5 948-1300)”, the percent disulfide-bonded turned out to be 40% in assay [1] and 50% in assay [2].

For the origin of these results see publication PMC8106670.
